# B1: polypyrimidine tract-binding protein 1 (PTBP1), wild type (natural protein)
# chain: not shown
# Target: the molecule itself
# Assay: native gel or EMSA
protein,measurement,value
B1,stoichiometry N,2

# Source: paper PMC12632113 (Cell & Bioscience, 2025)
